Measurements as given in the RNAGym collection of RNA variant scans (doi:10.1093/nar/gkz1192).

B1: CPEB3 Ribozyme (parent)
chain: UAACAGGGGGCCACAGCAGAAGCGUUCACGUCGCAGCCCCUGUCAGAUUCUGGUGAAUCUGCGAAUUCUGCUGUAUAUCUC

Variants of: B1
Assay: self-cleavage, relative activity (ratio to wild type); higher = more cleavage; in vitro, sequencing
Procedure, shortened: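 Relative activity was defined as the cleaved/total read fraction for a variant divided by the same fraction for the unmutated ribozyme. CPEB3 self-cleaving ribozyme libraries were made by rounds of error-prone PCR, barcoded, and transcribed in vitro with T7 RNA polymerase for 5 hours at 37°C, and cleavage ran through transcription plus a 15 min DNase I step before EDTA. Illumina sequencing of template-switched reverse transcripts gave the reads, and DNA sequencing mapped the barcodes. Averages come from three batches, using variants with at least 5 reads.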

Variant	self-cleavage
C29A U80C	0.54
A28U G36U	0.41
A28U G36C	0.37
A28U G36A	0.08
A28U C68A	0.32
A28G U60G	0.16
A28G U60C	0.25
A28G U60A	0.32
C29G G55A	0.16
C29G G30A	0.2
C29A C62U	0.15
C29U A77G	0.61
C29U A77C	0.5
C29U A77U	0.49
A28G C79U	0.88
C29G A45G	0.29
C29U C38U	0.16
A28G G61C	0.15
A28G G61A	0.38
A28G G61U	0.5
C29U C68U	0.42
C29A C40A	0.17
C29G U78C	0.21
C29A U76G	0.42

Variant	self-cleavage
C29A C32A	0.32
C29G U43C	0.3
C29U A64G	0.23
C29U A64C	0.24
C29U A64U	0.25
A28U G55A	0.59
C29G U31C	0.13
C29A U78C	0.3
C29A U78A	0.27
A28U U48C	0.42
A28U U48A	0.38
C29U A45U	0.19
C29U A45G	0.42
A28U G33C	0.26
A28U G33A	0.2
A28U G33U	0.14
A28G U48G	0.43
A28G U48A	0.26
A28G U48C	0.29
A28U A56G	0.53
A28U A56U	0.57
C29A U74A	0.62
A28U A57G	0.64
A28U A57U	0.5

Variant	self-cleavage
C29G A65G	0.27
A28G C62G	0.21
A28G C62A	0.23
A28G C62U	0.27
A28U C32A	0.19
A28U C32U	0.17
A28U C38U	0.48
A28G G42A	0.46
A28G G42C	0.18
A28G G42U	0.26
C29G G33U	0.09
A28U C62A	0.33
A28U C62U	0.19
A28G C38U	0.54
A28G C38G	0.25
A28G C38A	0.29
A28G U58A	0.24
A28G U58G	0.46
A28G U58C	0.27
C29A C68A	0.23
A28G C59U	0.54
A28G C59A	0.2
C29G U58C	0.52
A28G G30A	0.2

Variant	self-cleavage
A28G G30C	0.32
C29A A57G	0.33
C29U A47U	0.24
C29U A47G	0.55
C29A U60C	0.2
C29A U60A	0.11
C29U C40U	0.51
A28U G70A	0.27
A28U C29U	0.48
A28U C29G	0.1
C29G C59G	0.2
C29G C59A	0.1
C29A A45G	0.46
C29U C32U	0.51
C29G A47G	0.21
C29U C37U	0.34
A28G G55C	0.39
A28G G55U	0.68
A28G G55A	0.33
C29A A47G	0.4
C29A U69C	0.18
C29A U69G	0.22
C29G U69G	0.12
C29G U69C	0.21

Variant	self-cleavage
C29G U69A	0.13
C29A A56G	0.43
C29A U49C	0.29
C29A U49A	0.45
C29A U49G	0.22
A28U U49G	0.11
A28U U49C	0.31
A28U U49A	0.43
A28U G30U	0.2
A28U G30A	0.11
C29G U67C	0.12
C29A G63U	0.59
A28G C68U	0.48
A28G C68G	0.14
A28G C68A	0.17
A28G U31A	0.33
A28G U31G	0.25
A28G U31C	0.48
A28G U54A	0.6
A28G U54G	0.41
A28G U54C	0.58
A28U U31A	0.41
A28U U31G	0.31
A28U U31C	0.53

Variant	self-cleavage
C29A U67C	0.11
C29A U67A	0.46
C29A A65G	0.26
C29A A65U	0.14
A28U U51C	0.73
A28U U51A	0.77
C29G U54A	0.28
C29G U54C	0.24
A28G C40G	0.22
A28G C40U	0.48
A28U C50G	0.74
A28U C50U	0.8
A28U C50A	0.53
A28G G73A	1.16
A28G G73U	1.26
A28G G73C	1.29
A28U U54C	0.78
A28U U54A	0.71
C29A A75G	0.38
C29A A64U	0.27
C29A A64G	0.37
C29A A35G	1.11
C29A A35U	0.51
A28U C81U	0.86

Variant	self-cleavage
A28U C81A	0.84
C29G U49A	0.38
C29U A56G	0.38
C29U A56C	0.42
C29U A56U	0.16
A28U C39A	0.15
A28U C39U	0.48
A28U C39G	0.27
C29U C59A	0.24
A28G G63U	0.8
A28G G63A	0.38
C29G C34U	0.08
C29G C34G	0.22
A28U A64U	0.31
A28U A64G	0.63
A28U A64C	0.34
C29A U41G	0.43
C29A U41A	0.37
C29A U41C	0.39
C29U C44A	0.14
A28G U74C	1
A28G U74G	1.08
A28G U74A	1.06
C29A U48C	0.11

Variant	self-cleavage
C29A U48A	0.09
A28U U74A	1.19
A28U U74C	0.87
A28G G46A	0.09
A28G G46C	0.08
A28G G33A	0.22
A28G G33U	0.16
A28U	0.81
C29U A57U	0.2
C29U A57G	0.41
A28U A75G	0.71
A28U A75U	0.99
C29G A56G	0.23
A28G U69G	0.48
A28G U69C	0.25
A28G U69A	0.29
C29G U72C	0.26
A28U C37U	0.41
A28G C71U	0.15
A28G C71A	0.14
A28U U43C	0.41
A28U U43A	1
C29G A64G	0.41
A28U A45C	0.25

Variant	self-cleavage
A28U A45G	0.47
A28U A45U	0.4
A28G U43C	0.35
A28G U43A	0.86
A28G U43G	0.17
A28G U72C	0.67
A28G U72G	0.56
A28G U72A	0.3
A28U C40G	0.19
A28U C40A	0.47
A28U C40U	0.59
A28G C39A	0.06
A28G C39U	0.57
C29U C79G	0.68
C29U C79A	0.7
C29G G73A	0.39
C29A G53U	0.42
A28U U58C	0.39
A28U U58A	0.26
A28U U58G	0.2
A28G C44A	0.12
A28G C44U	0.28
A28G U41C	0.6
A28G U41A	0.27

Variant	self-cleavage
A28G U41G	0.15
A28G G70A	0.23
A28G U78C	0.61
A28G U78A	0.71
A28G U78G	0.67
A28U U76A	0.87
A28U U76C	0.88
A28U U72G	0.89
A28U U72A	0.55
A28U U72C	0.88
A28U U66G	0.69
A28U U66C	0.37
A28U U66A	0.31
A28U A77U	0.85
A28U A77G	0.8
A28G C81U	0.75
A28G C81G	0.42
A28G C81A	1
A28G G52A	0.76
A28G G52C	0.42
A28G G36A	0.15
A28G G36U	0.15
C29G A75G	0.21
C29G	0.3

Variant	self-cleavage
C29U	0.51
C29A	0.44
C29A U72G	0.18
C29A U72C	0.31
C29A U31C	0.3
C29A U31A	0.3
A28U G53A	0.87
A28U G53U	1
C29A A77G	0.46
C29A A77U	0.33
A28U U80A	0.71
A28U U80C	0.97
A28U G52A	0.83
C29U A35U	0.22
C29U A35C	0.25
C29U A35G	1.16
A28U U69G	0.42
A28U U69A	0.37
A28U U69C	0.33
C29U A75U	0.72
C29U A75G	0.46
A28G U80C	0.81
A28G U80A	0.72
A28G U49C	0.22

Variant	self-cleavage
A28G U49A	0.31
A28U A65G	0.35
A28U A65U	0.33
A28G C37U	0.43
A28G C37A	0.21
C29G A57G	0.51
C29G U41A	0.33
C29G U41C	0.2
C29G U41G	0.15
A28U A35G	1.22
A28U A35C	0.47
A28U A35U	0.35
A28G C50A	0.48
A28G C50U	0.48
A28G C50G	0.29
C29G C81A	0.3
C29U C62G	0.24
C29U C62U	0.21
A28U G42U	0.21
A28U G42C	0.28
A28U G42A	0.27
A28G U51C	0.62
A28G U51G	0.45
A28G U51A	0.63

Variant	self-cleavage
A28U A47U	0.67
A28U A47G	0.89
C29U A65G	0.27
C29A U66C	0.29
A28G G53A	0.78
C29A C59U	0.54
A28U G46U	0.14
A28U G46A	0.46
C29G A35G	0.67
C29G U60A	0.29
C29G U60C	0.11
C29A U58C	0.29
A28U G73A	0.99
A28U G73U	1.37
A28U U78G	0.97
A28U U78A	0.51
A28U U78C	0.73
C29U C39G	0.22
C29U C39A	0.28
A28U C59U	0.34
A28U C59A	0.21
A28U C79U	0.99
A28G U67G	0.17
A28G U67C	0.17

Variant	self-cleavage
A28G U67A	0.27
A28G U66A	0.31
A28G U66C	0.26
A28G U66G	0.2
C29A U54C	0.45
A28U U67A	0.3
A28U U67C	0.27
A28U U67G	0.2
A28U G61A	0.45
C29G U74C	0.31
A28U G63A	0.62
C29A G55A	0.31
A28G U76A	0.61
A28G U76C	0.67
A28G U76G	0.56
A28U U41A	0.26
A28U U41C	0.73
A28U U41G	0.14
A28U U60G	0.16
A28U U60A	0.26
A28U U60C	0.38
A28U C71U	0.39
